# Columns and labels:
# Interleukin-6 (IL-6) = Interleukin-6 (IL-6) (UniProt P05231 30-212); assay: FO-SPR; aptamer immobilized on pALT5c film; 100 fg/mL to 1 ug/mL IL-6 in PBS; no response without aptamer; PBS (immobilization and rinse PBS pH 7.4); FO-SPR 10 min per concentration step; aptamer folded 95 C 5 min, ice 15 min, RT 5 min; assay temperature not stated; details: label: none
# [1] = target: Tumour necrosis factor-alpha (TNF-alpha) (Homo sapiens, UniProt P01375 77-233); assay: OECT gate-voltage shift; negligible, non-monotonic shifts over the tested range; Kelvin probe in agreement; PBS (immobilization and rinse PBS pH 7.4); FO-SPR 10 min per concentration step; aptamer folded 95 C 5 min, ice 15 min, RT 5 min; assay temperature not stated; details: protein: recombinant; chain copies: 3; label: none
# Chain of Tumour necrosis factor-alpha (TNF-alpha) (P01375 77-233): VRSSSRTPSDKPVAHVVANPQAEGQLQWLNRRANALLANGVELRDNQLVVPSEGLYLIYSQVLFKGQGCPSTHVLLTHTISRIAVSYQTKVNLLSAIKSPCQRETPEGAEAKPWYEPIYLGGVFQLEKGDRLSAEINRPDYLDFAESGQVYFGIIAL
# Chain of Interleukin-6 (IL-6) (P05231 30-212): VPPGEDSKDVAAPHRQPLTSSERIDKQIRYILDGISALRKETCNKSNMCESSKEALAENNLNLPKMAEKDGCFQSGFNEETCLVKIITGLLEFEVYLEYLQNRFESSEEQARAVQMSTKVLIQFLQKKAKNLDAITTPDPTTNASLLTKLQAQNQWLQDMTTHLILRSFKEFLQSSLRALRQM
binder,measurement,setting,value
"CTTCCAACGCTCGTATTGTCAGTCTTTAGT (ssDNA, 5'-AminoC6) [IL-6 specific aptamer (Apt)]",binding result,Interleukin-6 (IL-6),binds
same,binding result,[1],no binding
